Measured values published in PMC9529903, “Structural insights of the elongation factor EF-Tu complexes in protein translation of Mycobacterium tuberculosis” (Communications Biology, 2022).

Key:
[1] = target: EF-Ts (Escherichia coli) (UniProt P0A6P1); conditions: cited from earlier work
[2] = target: T1, EF-Tu (Mycobacterium tuberculosis, UniProt P9WNN1); experiment: biochemical; assay type: binding
T1 construct: gene tuf; full-length

[3] = target: T2, Mycobacterium tuberculosis elongation factor EF-Tu (Mycobacterium tuberculosis, UniProt P9WNN1 1-396); experiment: ITC; conditions: both partners purified
T2 construct: also called Mtb EF-Tu
T2 sequence (P9WNN1 whole entry): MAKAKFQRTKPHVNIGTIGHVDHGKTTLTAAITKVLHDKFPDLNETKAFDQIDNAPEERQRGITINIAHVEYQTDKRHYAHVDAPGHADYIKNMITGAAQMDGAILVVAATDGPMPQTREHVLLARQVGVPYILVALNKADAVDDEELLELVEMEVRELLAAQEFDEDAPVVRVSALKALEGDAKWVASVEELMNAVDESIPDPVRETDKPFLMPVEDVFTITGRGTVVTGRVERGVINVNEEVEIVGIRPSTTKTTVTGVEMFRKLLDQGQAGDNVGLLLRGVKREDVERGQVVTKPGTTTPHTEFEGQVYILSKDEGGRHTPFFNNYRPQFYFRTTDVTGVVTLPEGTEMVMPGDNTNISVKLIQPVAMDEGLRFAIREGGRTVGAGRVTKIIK

T1 sequence (P9WNN1 whole entry): as above
EF-Ts (Escherichia coli), sequence (P0A6P1 2-283): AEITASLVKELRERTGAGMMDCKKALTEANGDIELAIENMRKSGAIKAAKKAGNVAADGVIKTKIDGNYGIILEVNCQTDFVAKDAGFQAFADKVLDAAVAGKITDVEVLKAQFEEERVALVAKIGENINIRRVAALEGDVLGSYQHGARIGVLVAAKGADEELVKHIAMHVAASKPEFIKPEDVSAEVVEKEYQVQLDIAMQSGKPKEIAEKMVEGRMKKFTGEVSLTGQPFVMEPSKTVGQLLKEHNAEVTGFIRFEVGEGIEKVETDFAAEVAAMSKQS

EF-Tu (from UniProt P0CE47)
Kd [1]: 0.002 µM

C=CC(=O)Nc1cc(Nc2nccc(-c3cn(C)c4ccccc34)n2)c(OC)cc1N(C)CCN(C)C [Osimertinib]
Kd [2]: 207 µM

B1: Mycobacterium tuberculosis elongation factor EF-Ts (natural protein)
chain: MANFTAADVKRLRELTGAGMLACKNALAETDGDFDKAVEALRIKGAKDVGKRAERATAEGLVAAKDGALIELNCETDFVAKNAEFQTLADQVVAAAAAAKPADVDALKGASIGDKTVEQAIAELSAKIGEKLELRRVAIFDGTVEAYLHRRSADLPPAVGVLVEYRGDDAAAAHAVALQIAALRARYLSRDDVPEDIVASERRIAEETARAEGKPEQALPKIVEGRLNGFFKDAVLLEQASVSDNKKTVKALLDVAGVTVTRFVRFEVGQA
notes: also called Mtb EF-Ts
Kd [3]: ~1.36 µM | stoichiometry N [3]: 1
